Test: soluble on expression in E. coli; label from the status in PepcDB or PDB records

Sequence | soluble on expression in E. coli
MPLTDTPPSVPQKPRRGRPRGAPDASLAHQSLIRAGLEHLTEKGYSSVGVDEILKAARVPKGSFYHYFRNKADFGLALIEAYDTYFARLLDQAFLDGSLAPLARLRLFTRMAEEGMARHGFRRGCLVGNLGQEMGALPDDFRAALIGVLETWQRRTAQLFREAQACGELSADHDPDALAEAFWIGWEGAILRAKLELRPDPLHSFTRTFGRHFVTRTQE | soluble
MGHHHHHHGGHMSLTKKLHIKTWGCQMNEYDSSKMADLLDATHGYQLTDVAEEADVLLLNTCSIREKAQEKVFHQLGRWKLLKEKNPDLIIGVGGCVASQEGEHIRQRAHYVDIIFGPQTLHRLPEMINSVRGDRSPVVDISFPEIEKFDRLPEPRAEGPTAFVSIMEGCNKYCTYCVVPYTRGEEVSRPSDDILFEIAQLAAQGVREVNLLGQNVNAWRGENYDGTTGSFADLLRLVAAIDGIDRIRFTTSHPIEFTDDIIEVYRDTPELVSFLHLPVQSGSDRILNLMGRTHTALEYKAIIRKLRAARPDIQISSDFIVGFPGETTEDFEKTMKLIADVNFDMSYSFIFSARPGTPAADMVDDVPEEEKKQRLYILQERINQQAMAWSRRMLGTTQRILVEGTSRKSIMELSGRTENNRVVNFEGTPDMIGKFVDVEITDVYPNSLRGKVVRTEDEMGLRVAETPESVIARTRKENDLGVGYYQPEGGS | soluble
MGSDKIHHHHHHMEIPPEILQSLIELGFTKYEVLTYWTLLVYGPSTAKEISIRSGIPYNRVYDTISSLKVRGFVTEIEGNPKVYAAYSPRIAFLRFKKELDEISEKLEKAISEVKREERCRPSIWRSHDFEEAIEMFKETLESSENEVIVVTPSEFFKSIRETLIGILDRGVTLSLYIDKVPDISDFEGRGNFFLRRFTKFNHLIGLADGKVVATIQNVSFMPPSPPSFKSTFKEIIFSQYSLTLEIFKESSLEVEQIMNPQDIRFFAVFHAADFVKRHLPSSTIFSEIVGRNVKTGEVEKLYGKVVGYTLSFREGVNNIQIETEKGIVKVGGMFAVIEDYESTNVRLMLES | not soluble
MGSDKIHHHHHHMGDKYLTLSELNLEGQLLGFVGGEPGKYKYLQLAVPSGNVEIKLPKELRRSLSLSLVPGQHIRICGHSKVDSRTSKIKIKAYRVTPIDGCPKQDLPPQIKARIMVCQKGGCLKRGGKGLLSDLEKTLCDRGLLDKVTIEHTSCQKCCNSAPNCVLHLGKKKYKNIHPDAIASLLESHLTE | not soluble
NTLKAGQTQSFNDWFPDDNFASEVAAAFEMQATDTISEEQLATLTSLDCHNSSITDMTGIEKLTGLTKLICTSNNITTLDLSQNTNLTYLACDSNKLTNLDVTPLTKLTYLNCDTNKLTKLDVSQNPLLTYLNCARNTLTEIDVSHNTQLTELDCHLNKKITKLDVTPQTQLTTLDCSFNKITELDVSQNKLLNRLNCDTNNITKLDLNQNIQLTFLDCSSNKLTEIDVTPLTQLTYFDCSVNPLTELDVSTLSKLTTLHCIQTDLLEIDLTHNTQLIYFQAEGCRKIKELDVTHNTQLYLLDCQAAGITELDLSQNPKLVYLYLNNTELTELDVSHNTKLKSLSCVNAHIQDFSSVGKIPALNNNFEAEGQTITMPKETLTNNSLTIAVSPDLLDQFGNPMNIEPGDGGVYDQATNTITWENLSTDNPAVTYTFTSENGAIVGTVTTPFEAPQPIK | soluble
MAKKIEKNIITGLDIGTSKIIALIGEVTSDGTIEIIGIGRHPSRGLKRGVVVDIETTVNSIQRAVQEAELMAGCEVRTVYAGIAGSHIRSLNSHGIVAIRDQEVSQADVERVIDAAKAVAIPADQ | not soluble
MGSDKIHHHHHHMSDVIEQYFVKNEPYYRPVADEVKLYEAAYSVRMPMMLKGPTGCGKTRFVEYMAWKLGKPLITVACNEDMTASDLVGRFLLDAQGTRWQDGPLTTAARYGAICYLDEVVEARQDTTVVIHPLTDNRRVLPLEKKGELVGAHPDFQLVISYNPGYQSLMKDLKQSTKQRFGALDFNYPQHDIETEIVSHETGIDSAIADKLVSIAERARNLKGHGLDEGISTRMLIYAGNLIAKGVDVHAACRMALVRPITDDPDMRDALDAAVTTFF | not soluble
MAHHHHHHMVLITSNCARVAAFTRKAACSGALCDRHRCISGGGRGDLFTRHAGAFKPPAFGVLRGLTHSSQTTHPQTGQLQARKRIQHAMHDRTLSGSGHHRTAVATWSYLLHSLRQNVEQAVPDALYEKLLTDEVPLTPAESRQLADAHRLLRFELQKRIGLLEDSLADAALPYLLQWPALFQRAWLRLPMDQGRASVTEANHDAVVPAPPSFVHAPAALPVTEWAPTLSPASPPACSNGLIGRGALVPRLAQLTRHVIRCVEEDLGRLEHVSEPREDGVPRSRRQVALEAAWRAQWASLLTWHAGVSYGMG | soluble
MLVFISNSRLSESEVQKLRDKHLIDDFIQRENKGYDFAAWHDGMEFVGFENLKQYDSVTVMNDTCFGPLWDMAPIYDNYESNPNVDFWGMTNHQGIKAGDIYIHEHLQSYFISFKKRLVESSVFQKFWKSVESFEDVQKVIDNYETLYTKKFRDAGFNYESILNTIPLNDKFFHSNFTIHYPHVLLDTGVPFIKVKTFDLTQHLAPYLLKEIEKRTDYPVELILSHMSDMSLPTPPYLLDRKVIEKSSQTYSDTKKIAVHLHTYYVDLLEDFLKQFENFHFTYDLFLTTDSEDKKAEIQSILDKNGKVARIFITGNRGRDVIPMLKLKDELSAYDYIGHFHTKKSPEYPYWVGDSWRNELFSMLIQPADNIIANLERDDRLGLVIADIPSFFRYTKIVDPWNENRFAEGMNDLWERMDLGRDIDFDKMNTFIMSYGTFIWFKYDALKPLFDLDLQDEEIPAEPIPQHTILHSIERILVYLAWARRYDYAIAKNDIYITPFVDNVVLNIRPDTLPNTYINFDNIGGIKGALKYIIVGPLEHHHHHH | not soluble
MKNKAFGQIMDDAENPGFFKILRSADLSSEIMRGIPLNFIKSISEEELSAKMLLKVSWGSSWPIKICRNPSFYFMEKKGWDQFLSDNGLGNDEFLTFTHQGNMCFTVDIYQIDGKELLTPRRSATIASSSGRNKREQRNNIYKDVKEEEDIESWSESSYPGHKTAESTGRRQRLSLSNKKAKETEKSKKKKMKVESISYDSQDDSLSLVPEFTLTIKKSYLIFLGIPKMFEELHMPTEATMFKIHDPEGKRSWDVMYKFSNNQTRFCAGWIRLAKELGLEIGDVCTFTLIKPTEMLVRVSK | soluble
MLRHNVPVRRDLDQIAANNGFDFHIIDNEIYWDESRAYRFTLRQIEEQIEKPTAELHQMCLEVVDRAVKDEEILTQLAIPPLYWDVIAESWRARDPSLYGRMDFAWCGNAPVKLLEYNADTPTSLYESAYFQWLWLEDARRSGIIPRDADQYNAIQERLISRFSELYSRELFYFCCCQDTDEDRSTVLYLQDCAQQAGQESRFIYIEDLGLGVGGVLTDLDDNVIQRAFKLYPLEWMMRDDNGPLLRKRREQWVEPLWKSILSNKGLMPLLWRFFPGHPNLLASWFEGEKSQIAAGESYVRKPIYSREGGNVTIFDGQNNVVDHADGDYADEPMIYQAFQPLPRFGDSYTLIGSWIVDDEACGMGIREDNTLITKDTSRFVPHYIAG | not soluble
MRGLAVLVLLVFAVQVAAAEDFRPVVFVHGLAGSAGQFESQGMRFAANGYPAEYVKTFEYDTISWALVVETDMLFSGLGSEFGLNISQIIDPETLDKILSKSRERLIDETFSRLDRVIDEALAESGADKVDLVGHSMGTFFLVRYVNSSPERAAKVAHLILLDGVWGVDAPEGIPTLAVFGNPKALPALGLPEEKVVYNATNVYFNNMTHVQLCTSPETFAVMFEFINGYKPATTDIVPQDGDYVKVKGKFLAFATNGDVSGWLSIYPIDENGKRLTRLPVKFMRVKGDFEVRLRKGQLYEFQFRKDFSPIIYHYYRAPFVRDDLWARFLVSKPPLDVELLILPERLSPAAKETSGLLLIRYKEMIGEYDEEIGGVDEVYVNGVNVCTERICPIERAVNGLWVFDRGADGKSDLDREVVRYSIMPFMSAADLVVPAEGTISIAVKSRTGGEESFTIPAWSADRHSIIVQFSDYI | not soluble
MSLAAPNAASGVLKLYRAYREQAQRLSDLSDLLAREGHETALSSTRLPIDEVRHVFENRPAYFHAIDAAAEELHKQLSTGDDLASGLRAWLQKNHGIVVRTLPVHAMPNLRRRYDRHSMRLFLSERLSQPDQLREMAMETCLLALREEIGTELEALGLKGEEARRIARFELARYAAHALMMPYGAFLAAAQRAKYDLDVLRSRFNVSFEQAANRLVSLQRPTTAAIPFFLMEIDNAGNRFRLAGAGGFPRARFGGLCPRLNIHAAFAQPGQVLVESVEMPDGDAFLTVSRTLEGEGHHHHHH | not soluble
GVEFMAGYYDTKNQALNPVSRTERPYPIVTVQNYVEKAIKEGRIQMNVEIEAFTTDIRMIVIGNVFEWCLRNGEADFEGNMVRSLGKYLDSTLD | not soluble
MKLDPQTLAHITSATLGNYNRVADDFREGTRDHDVSQNIDALLRHIEGSAPWQILDFGCGPGRDLKTFTAMGHVAVGLDGSERFAEMARAETGCEVFQQNFLELDLPQGRFDGIFANAVLFHIPRQELPRVLRELYATLKPGGVLFSSNPRGQNQEGWQGERYGAYHDLETWRQLLTDAGFAELEHYYRPLEHHHHHH | soluble
MNITQILSQELSATAAQITAAVELLDDGATVPFIARYRKEATGGLDDTQLRRLAERLQYLRELEERKAVVLKSIEEQGKLSDDLRAQIEAADNKTALEDLYLPYKPKRRTKAQIAREHGLQPLADVLLAEQSQDVEAAAQGYLNENVPDAKAALDGARAILMEQFAEDAELIGTLRDKLWNEAEIHAQVVEGKETEGEKFSDYFDHREPVRTMPSHRALAVLRGRNEGVLNIALKYQPDDTPITRQSEYEQIIACRFKVSDGHKWLRDTVRLTWRAKIFLSLELEALGRLKEAADTDAITVFARNLKDLLLVAPAGRLTTLGLDPGYRNGVKCAVVDDTGKLLDTVIVYLHQENNMLATLSRLIKQHGVKLIAIGNGTASRETDKIAGELVRGMPEMGLHKIVVSEAGASIYSASELAAREFPDLDVSLRGAVSIARRLQDPLAELVKIDPKSIGVGQYQHDVNQNQLAKSLDAVVEDCVNAVGVDVNTASAPLLARISGLNQTLAQNIVAYRDENGAFDSRKKLLKVPRLGEKTFEQAAGFLRINGGKEPLDASAVHPEAYPVVAKMLAQQGISAAELIGNRERVKQIKASDFTDERFGLPTILDILSELEKPGRDPRGEFQTASFAEGIHEISDLQVGMILEGVVSNVANFGAFVDIGVHQDGLVHISALSNKFVQDPREVVKAGDVVKVKVLEVDAARKRIALTMRLDDEPGGAKHKMPSENRSRERTAGRKPQRNDRAPANSAMADAFAKLKR | soluble
PEKVTVVPKFGDWDENNPSSADGYTHIFNKVREER | soluble
MGSDKIHHHHHHMPIDTVGEQISLGKTSNEQANHIFLFLEVFKQEGGIQSYVKDIFRAYSGLSQGYQAEVLLLRDSPECSNPFTSNNLKFHYFQNPSPQIGRIKMAGVLLKFLLQRRPQMVFCGHIKLAVLVQTLCQPLGIPYTILTYGKEFWEPLKNQERRALAAAKEIWTISRYSRDRACAVNGIDPHKVKMLPCAIDGNKFTPGAKQPELIDKYGLTDAKVLMTVARLWSGDIYKGVDVTIRALPKIIQSFPEVKYLVIGRGDDQPRLAQLAQDLGVSDRVIFAGFVPTEQLMAHYRLADAYIMPSQEGFGIVYLEAMACGVPVLSGDDDGSADPLQDGKLGWRVPHRNPEAVAAACLEILQGDDQRCDGEWLREQAIALFGMDALQKQLLSLVHTQN | not soluble

Reference: the DeepSol protein solubility set
